{"source": "paper PMC6826380", "about": "“Overexpression of a Novel Cytochrome P450 Promotes Flavonoid Biosynthesis and Osmotic Stress Tolerance in Transgenic Arabidopsis” (Genes, 2019)", "tested_on": "T1, C[C@@H]1O[C@@H](OC[C@H]2O[C@@H](Oc3c(-c4ccc(O)c(O)c4)oc4cc(O)cc(O)c4c3=O)[C@H](O)[C@@H](O)[C@@H]2O)[C@H](O)[C@H](O)[C@H]1O", "T1 construct": "N-terminal His tag, pET28a in E. coli BL21(DE3), Ni-NTA; forward coding primer starts ATGGCCGACGACTATGGC (MADDYG)", "assay": "purified protein", "type": "biochemical, Carthamus tinctorius", "conditions": "range of rutin concentrations; no redox partner or NADPH stated"}
{"substance": "CtCYP82G24 (Carthamus tinctorius var. tinctorius)", "values": [{"measurement": "Km", "value": "5.37 ± 0.123", "unit": "mM"}]}
